Experimental data published in patent US20240392036A1 (UNIVERSITEIT GENT, published 2024).

T1: porcine kidney aminopeptidase N (APN), purified (Sigma) (porcine (Sus scrofa), UniProt P15145 33-963, biotinylated (1:3 ratio) when used as ligand in BLI)
T1 construct: Used coated in ELISA and biotinylated on SAX biosensors in BLI; also called purified kidney APN; porcine APN
T1 sequence: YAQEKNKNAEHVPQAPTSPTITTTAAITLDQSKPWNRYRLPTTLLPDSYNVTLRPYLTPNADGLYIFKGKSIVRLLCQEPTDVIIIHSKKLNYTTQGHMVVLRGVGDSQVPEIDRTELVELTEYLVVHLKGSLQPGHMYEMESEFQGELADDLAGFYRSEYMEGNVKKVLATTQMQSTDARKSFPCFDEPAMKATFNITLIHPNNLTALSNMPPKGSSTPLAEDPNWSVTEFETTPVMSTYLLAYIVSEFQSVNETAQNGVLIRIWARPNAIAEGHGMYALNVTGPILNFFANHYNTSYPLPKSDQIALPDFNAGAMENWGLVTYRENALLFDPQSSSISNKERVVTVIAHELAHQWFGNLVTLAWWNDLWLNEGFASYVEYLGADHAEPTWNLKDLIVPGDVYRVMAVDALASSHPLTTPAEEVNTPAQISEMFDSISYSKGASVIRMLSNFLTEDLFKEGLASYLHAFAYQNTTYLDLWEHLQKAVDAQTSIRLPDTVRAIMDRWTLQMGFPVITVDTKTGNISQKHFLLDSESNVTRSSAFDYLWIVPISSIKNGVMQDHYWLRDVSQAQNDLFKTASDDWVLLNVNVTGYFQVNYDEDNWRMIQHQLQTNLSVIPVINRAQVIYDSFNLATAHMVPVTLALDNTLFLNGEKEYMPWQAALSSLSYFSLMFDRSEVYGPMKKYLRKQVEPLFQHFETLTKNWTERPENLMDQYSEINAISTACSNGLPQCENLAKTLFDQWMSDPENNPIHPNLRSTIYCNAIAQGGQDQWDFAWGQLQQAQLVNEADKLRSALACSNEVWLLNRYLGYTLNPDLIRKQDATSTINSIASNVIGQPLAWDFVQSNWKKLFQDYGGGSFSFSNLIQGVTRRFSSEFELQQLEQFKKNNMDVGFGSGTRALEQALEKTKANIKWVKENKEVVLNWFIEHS


What was measured:
[1] = biological target: T1, porcine kidney aminopeptidase N (APN), …; experiment: BLI (Octet RED96), biotinylated porcine APN on SAX biosensor, mAb at 100 nM, 1:1 local full fit
[2] = biological target: T1, porcine kidney aminopeptidase N (APN), …; experiment: bio-layer interferometry, biotinylated porcine APN on SAX biosensor, series of analyte concentrations (not labelled on the sheet)

| Binder | Kd [1] [nM] | Kd [2] [nM] |
| --- | --- | --- |
| α-APN-mIgG1 (clone IMM013), APN-specific mouse IgG1 monoclonal antibody (antibody, Purified from hybridoma supernatant by protein G; also called IMMO13; α-APN mAb (clone IMM013)) heavy: QAYLQQSGAELVRSGASVKMSCKASGYTFTSYNMHWVKQTPGQGLEWIGYIYPGNGDINYNQKFKGKATLTADTSSNTAYMQISSLTSEDSAVYFCARGGVFDYWGQGTTLIVSSAKTTPPSVYPLAPGSAAQTNSMVTLGCLVKGYFPEPVTVTWNSGSLSSGVHTFPAVLQSDLYTLSSSVTVPSSTWPSETVTCNVAHPASSTKVDKKIVPRDCGCKPCICTVPEVSSVFIFPPKPKDVLTITLTPKVTCVVVDISKDDPEVQFSWFVDDVEVHTAQTQPREEQFNSTFRSVSELPIMHQDWLNGKEFKCRVNSAAFPAPIEKTISKTKGRPKAPQVYTIPPPKEQMAKDKVSLTCMITDFFPEDITVEWQWNGQPAENYKNTQPIMDTDGSYFVYSKLNVQKSNWEAGNTFTCSVLHEGLHNHHTEKSLSHSPGK light: QIVLTQSPAIVSASPGEKVTITCSGSSSVNYMHWFQQKPGTSPKLWIYSTSNLASGVPGRFSGSGSGTSYSLTISRMEAEDAATYYCQQRTSYPYTFGGGTKLEIKRADAAPTVSIFPPSSEQLTSGGASVVCFLNNFYPKDINVKWKIDGSERQNGVLNSWTDQDSKDSTYSMSSTLTLTKDEYERHNSYTCEATHKTSTSPIVKSFNRNEC | 1.6 | 1.4 |
| α-APN-mIgG1-FedF fusion construct (clone IMM013 mouse IgG1 with FedF15-165 fused to the heavy chain) (other, also called FedF-linked α-APN-mIgG1; aAPN-mIgG1-FedF) heavy: QAYLQQSGAELVRSGASVKMSCKASGYTFTSYNMHWVKQTPGQGLEWIGYIYPGNGDINYNQKFKGKATLTADTSSNTAYMQISSLTSEDSAVYFCARGGVFDYWGQGTTLIVSSAKTTPPSVYPLAPGSAAQTNSMVTLGCLVKGYFPEPVTVTWNSGSLSSGVHTFPAVLQSDLYTLSSSVTVPSSTWPSETVTCNVAHPASSTKVDKKIVPRDCGCKPCICTVPEVSSVFIFPPKPKDVLTITLTPKVTCVVVDISKDDPEVQFSWFVDDVEVHTAQTQPREEQFNSTFRSVSELPIMHQDWLNGKEFKCRVNSAAFPAPIEKTISKTKGRPKAPQVYTIPPPKEQMAKDKVSLTCMITDFFPEDITVEWQWNGQPAENYKNTQPIMDTDGSYFVYSKLNVQKSNWEAGNTFTCSVLHEGLHNHHTEKSLSHSPGKGGGGSGGGGSGGGGSNSSASSAQVTGTLLGTGKTNTTQMPALYTWQHQIYNVNFIPSSSGTLTCQAGTILVWKNGRETQYALECRVSIHHSSGSINESQWGQQSQVGFGTACGNKKCRFTGFEISLRIPPNAQTYPLSSGDLKGSFSLTNKEVNWSASIYVPAIAK light: QIVLTQSPAIVSASPGEKVTITCSGSSSVNYMHWFQQKPGTSPKLWIYSTSNLASGVPGRFSGSGSGTSYSLTISRMEAEDAATYYCQQRTSYPYTFGGGTKLEIKRADAAPTVSIFPPSSEQLTSGGASVVCFLNNFYPKDINVKWKIDGSERQNGVLNSWTDQDSKDSTYSMSSTLTLTKDEYERHNSYTCEATHKTSTSPIVKSFNRNEC | – | 5.1 |
